Results reported in PMC6451127.
Numbering of substitutions follows the chain as printed. Names and notes keep the numbering of the source.

B1: AtMAPDA (Arabidopsis thaliana; N17A) (protein)
chain: MEWIQSLPKIELHAHLAGSIRDSTLLELARVLGEKGVIVFADVEHVIQKNDRSLVEVFKLFDLIHKLTTDHKTVTRITREVVEDFALENVVYLELRTTPKRSDSIGMSKRSYMEAVIQGLRSVSEVDIDFVTASDSQKLHNAGDGIGRKKIYVRLLLSIDRRETTESAMETVKLALEMRDVGVVGIDLSGNPLVGEWSTFLPALQYAKDNDLHITLHCGEVPNPKEIQAMLDFKPHRIGHACFFKDEDWTKLKSFRIPVEICLTSNIVTKSISSIDIHHFADLYNAKHPLILCTDDFGVFSTSLSNEYALAVRSLGLSKSETFALARAAIDATFAEDEVKQQLRFIFDSASPEHV
B2: AtMAPDA (Arabidopsis thaliana; H65A) (protein)
chain: B1 chain with A17N, H65A
B3: AtMAPDA (Arabidopsis thaliana; T98A) (protein)
chain: B1 chain with A17N, T98A
B4: AtMAPDA (Arabidopsis thaliana; T97A) (protein)
chain: B1 chain with A17N, T97A
B5: AtMAPDA (Arabidopsis thaliana; K100A) (protein)
chain: B1 chain with A17N, K100A
B6: AtMAPDA (Arabidopsis thaliana) (protein)
chain: B1 chain with A17N

substrate: CNc1ncnc2c1ncn2[C@@H]1O[C@H](COP(=O)(O)O)[C@@H](O)[C@H]1O; test: purified protein; type: biochemical, Arabidopsis thaliana; settings: 20 mM potassium phosphate pH 7.2, 25 °C

Protein	Km [µM]
B1	7.12
B2	5.51
B3	4.52
B4	8.94
B5	6.89

same assay, conditions: 20 mM potassium phosphate pH 7.2, 25 °C, 250 nM enzyme

Protein	Km [µM]
B6	4.14
